To fix the notation:
B1: PBP1b (aa58-804) (enzyme)
chain: KPRGKRGWLWLLLKLAIVFAVLIAIYGVYLDQKIRSRIDGKVWQLPAAVYGRMVNLEPDMTISKNEMVKLLEATQYRQVSKMTRPGEFTVQANSIEMIRRPFDFPDSKEGQVRARLTFDGDHLATIVNMENNRQFGFFRLDPRLITMISSPNGEQRLFVPRSGFPDLLVDTLLATEDRHFYEHDGISLYSIGRAVLANLTAGRTVQGASTLTQQLVKNLFLSSERSYWRKANEAYMALIMDARYSKDRILELYMNEVYLGQSGDNEIRGFPLASLYYFGRPVEELSLDQQALLVGMVKGASIYNPWRNPKLALERRNLVLRLLQQQQIIDQELYDMLSARPLGVQPRGGVISPQPAFMQLVRQELQAKLGDKVKDLSGVKIFTTFDSVAQDAAEKAAVEGIPALKKQRKLSDLETAIVVVDRFSGEVRAMVGGSEPQFAGYNRAMQARRSIGSLAKPATYLTALSQPKIYRLNTWIADAPIALRQPNGQVWSPQNDDRRYSESGRVMLVDALTRSMNVPTVNLGMALGLPAVTETWIKLGVPKDQLHPVPAMLLGALNLTPIEVAQAFQTIASGGNRAPLSALRSVIAEDGKVLYQSFPQAERAVPAQAAYLTLWTMQQVVQRGTGRQLGAKYPNLHLAGKTGTTNNNVDTWFAGIDGSTVTITWVGRDNNQPTKLYGASGAMSIYQRYLANQTPTPLNLVPPEDIADMGVDYDGNFVCSGGMRILPVWTSDPQSLCQQSEMQQQPS
B2: FtsW-FtsI complex, His-tagged (complex)
chain 1: MRLSLPRLKMPRLPGFSILVWISTALKGWVMGSREKDTDSLIMYDRTLLWLTFGLAAIGFIMVTSASMPIGQRLTNDPFFFAKRDGVYLILAFILAIITLRLPMEFWQRYSATMLLGSIILLMIVLVVGSSVKGASRWIDLGLLRIQPAELTKLSLFCYIANYLVRKGDEVRNNLRGFLKPMGVILVLAVLLLAQPDLGTVVVLFVTTLAMLFLAGAKLWQFIAIIGMGISAVVLLILAEPYRIRRVTAFWNPWEDPFGSGYQLTQSLMAFGRGELWGQGLGNSVQKLEYLPEAHTDFIFAIIGEELGYVGVVLALLMVFFVAFRAMSIGRKALEIDHRFSGFLACSIGIWFSFQALVNVGAAAGMLPTKGLTLPLISYGGSSLLIMSTAIMMLLRIDYETRLEKAQAFVRGSR
chain 2: MKAAAKTQKPKRQEEHANFISWRFALLCGCILLALAFLLGRVAWLQVISPDMLVKEGDMRSLRVQQVSTSRGMITDRSGRPLAVSVPVKAIWADPKEVHDAGGISVGDRWKALANALNIPLDQLSARINANPKGRFIYLARQVNPDMADYIKKLKLPGIHLREESRRYYPSGEVTAHLIGFTNVDSQGIEGVEKSFDKWLTGQPGERIVRKDRYGRVIEDISSTDSQAAHNLALSIDERLQALVYRELNNAVAFNKAESGSAVLVDVNTGEVLAMANSPSYNPNNLSGTPKEAMRNRTITDVFEPGSTVKPMVVMTALQRGVVRENSVLNTIPYRINGHEIKDVARYSELTLTGVLQKSSNVGVSKLALAMPSSALVDTYSRFGLGKATNLGLVGERSGLYPQKQRWSDIERATFSFGYGLMVTPLQLARVYATIGSYGIYRPLSITKVDPPVPGERVFPESIVRTVVHMMESVALPGGGGVKAAIKGYRIAIKTGTAKKVGPDGRYINKYIAYTAGVAPASQPRFALVVVINDPQAGKYYGGAVSAPVFGAIMGGVLRTMNIEPDALTTGDKNEFV

What all share (assay): BLI
In general terms: BLI is a label-free optical method that tracks binding on a fibre tip over time.

The target of test [1] is FtsB-FtsL-FtsQ complex, His-tagged (E. coli strain K12, UniProt P0A6S5 1-103; P0AEN4 1-121; P06136 1-276, S3N | R4K | V5L).
The target in test [2] is B1.
Test [3] deals with FtsB-FtsL-FtsQ complex, analyte of the BLI assay (E. coli strain K12, UniProt P0A6S5 1-103; P0AEN4 1-121; P06136 1-276, S3N | R4K | V5L).

Data on two molecules can be found in publication PMC10076392 (2023).

Usually Kd stands for the free concentration of one partner at which half of the binding sites on the other are occupied at equilibrium, for simple one-to-one binding. A higher Kd goes with a looser complex. B1: in test [1], the Kd came out at 930 nM. Take B2: the dissociation constant (Kd) in test [2] was 530 nM; in test [3], 180 nM.
